Assay results: PMC11931385, “Structural and functional analysis of cancer-associated missense variants in the retinoblastoma protein pocket domain” (The Journal of Biological Chemistry, 2025)
Numbering of substitutions follows the chain as printed. Names and notes keep the numbering of the source. No end group written: not given here. TMR = tetramethyl rhodamine dye

T1: Rb^P S588F (human, UniProt P06400 380-788, S588F)
T1 construct: also called variant 34
T1 sequence (looked up): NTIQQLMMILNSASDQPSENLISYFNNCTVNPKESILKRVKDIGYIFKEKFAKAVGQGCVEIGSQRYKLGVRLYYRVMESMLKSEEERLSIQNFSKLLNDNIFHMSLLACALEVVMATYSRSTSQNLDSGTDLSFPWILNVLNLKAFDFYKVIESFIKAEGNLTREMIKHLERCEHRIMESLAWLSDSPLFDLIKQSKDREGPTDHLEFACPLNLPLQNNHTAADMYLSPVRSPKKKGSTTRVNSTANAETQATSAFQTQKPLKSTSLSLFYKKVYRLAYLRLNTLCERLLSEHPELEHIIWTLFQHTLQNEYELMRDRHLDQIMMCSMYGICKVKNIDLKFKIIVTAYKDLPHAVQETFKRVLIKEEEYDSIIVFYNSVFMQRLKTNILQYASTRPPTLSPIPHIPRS

T2: Rb^P D604G (human, UniProt P06400 380-788, D604G)
T2 construct: also called variant 36
T2 sequence (looked up): T1 sequence (looked up) with F209S, D225G

T3: Rb^P R611S (human, UniProt P06400 380-788, R611S)
T3 construct: also called variant 38
T3 sequence (looked up): T1 sequence (looked up) with F209S, R232S

T4: Rb^P T620M (human, UniProt P06400 380-788, T620M)
T4 construct: also called variant 40
T4 sequence (looked up): T1 sequence (looked up) with F209S, T241M

T5: Rb^P E693A (human, UniProt P06400 380-788, E693A)
T5 construct: also called variant 60
T5 sequence (looked up): T1 sequence (looked up) with F209S, E314A

B1: TMR-E2F1^TD, peptide of the E2F1 transactivation domain (peptide)
peptide: {TMR}-GEGIRDLFDCDFGDLTPLD
notes: also called E2F^TD; source: synthetic peptide, bought: GenScript
B2: TMR-E7^LxCxE, LxCxE peptide of the E7 oncoprotein from HPV (peptide)
peptide: DLYCYEQLN
modifications: also: TMR label, position not given here
notes: source: synthetic peptide, bought: GenScript

Columns and labels:
Assay in all cases: fluorescence polarisation; 37 °C, after the 25 °C reading ramped over 7 min to 37 °C and 2 min incubation; unlabeled Rb^P against 1.5 nM TMR-E2F1^TD or 7.5 nM TMR-E7^LxCxE; 25 mM Tris pH 8.0, 200 mM NaCl, 1 mM DTT, 0.1% Tween-20; apparent Kd
Details in all cases: both partners purified
Rb^P S588F = biological target: T1, Rb^P S588F
Rb^P D604G = biological target: T2, Rb^P D604G
Rb^P R611S = biological target: T3, Rb^P R611S
Rb^P T620M = biological target: T4, Rb^P T620M
Rb^P E693A = biological target: T5, Rb^P E693A

Binder	Kd (Rb^P S588F)	Kd (Rb^P D604G)	Kd (Rb^P R611S)	Kd (Rb^P T620M)	Kd (Rb^P E693A)
B1	51 nM	50 nM	30 nM	59 nM	59 nM
B2	16 nM	26 nM	15 nM	15 nM	24 nM
